In the assay the target is DENV-4 parental viruses. Nature of the assay: cell-based or functional assay.

Values joined by “and” are separate entries in the source; they are usually repeats but may differ in a detail not shown here. Identical values can stand only once.

B1: Humanized IgG 5H2 ΔD (IgG1 5H2 with a 9-amino-acid deletion, positions 231-239, at the N-terminus of the CH2 domain) (antibody)
heavy: EVQLLESGPGLVKPSETLSLTCTVSGGSISDFYWSWLRQSPGKGLEWIGYAHSRVSAYYNPSLKSRVTISVDTSKNQLSLRLSAVTAADTALYYCARQGTGTTGVSEDFFDLWGQGTKVIVSLASTKGPSVFPLAPSSKSTSGGTAALGCLVKDYFPEPVTVSWNSGALTSGVHTFPAVLQSSGLYSLSSVVTVPSSSLGTQTYICNVDHKPSNTKVDKKVEPKSCDKTHTCPPCPVFLFPPKPKDTLMISRTPEVTCVVVDVSHEDPEVKFNWYVDGVEVHNAKTKPREEQYNSTYRVVSVLTVLHQDWLNGKEYKCKVSNKALPAPIEKTISKAKGQPREPQVYTLPPSRDELTKNQVSLTCLVKGFYPSDIAVEWESNGQPENNYKTTPPVLDSDGSFFLYSKLTVDKSRWQQGNVFSCSVMHEALHNHYTQKSLSLSPGK
light: not shown
With B1, the PRNT50 titer was 0.03 µg/mL and 0.05 µg/mL.

These data come from patent US20100247549A1.
